Experimental data as given in US20160046675A1 (US Dept. of Health and Human Services, published 2016).

Molecular target: RSV F glycoprotein on RSV-infected HEp-2 cells and on RSV virions (respiratory syncytial virus; strain not …, UniProt P03420 26-109; P03420 137-574)
Experiment: cell-based or functional assay

Chain of RSV F glycoprotein on RSV-infected HEp-2 cells and on RSV virions (P03420 26-109, chain 1 of 2): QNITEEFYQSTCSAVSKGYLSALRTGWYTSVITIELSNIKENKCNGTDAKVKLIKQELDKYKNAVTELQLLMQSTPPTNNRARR
Chain of RSV F glycoprotein on RSV-infected HEp-2 cells and on RSV virions (P03420 137-574, chain 2 of 2): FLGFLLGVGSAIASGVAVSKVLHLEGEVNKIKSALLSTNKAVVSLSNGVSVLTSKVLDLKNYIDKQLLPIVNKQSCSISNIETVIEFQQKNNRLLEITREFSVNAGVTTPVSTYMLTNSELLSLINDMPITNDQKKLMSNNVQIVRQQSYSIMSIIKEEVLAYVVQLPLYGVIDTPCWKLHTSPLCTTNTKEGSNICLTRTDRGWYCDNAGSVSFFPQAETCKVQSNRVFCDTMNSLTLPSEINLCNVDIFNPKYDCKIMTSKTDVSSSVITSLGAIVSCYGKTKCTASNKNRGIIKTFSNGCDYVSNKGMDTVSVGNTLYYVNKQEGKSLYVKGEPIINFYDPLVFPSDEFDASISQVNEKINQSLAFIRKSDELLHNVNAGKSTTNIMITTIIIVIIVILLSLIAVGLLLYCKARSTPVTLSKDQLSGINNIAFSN

B1: AM22 monoclonal antibody (antibody, V domains shown)
VH: QVQLVQSGAEVKKPGATVKVSCKISGHTLIKLSIHWVRQAPGKGLEWMGGYEGEVDEIFYAQKFQHRLTVIADTATDTVYMELGRLTSDDTAVYFCGTLGVTVTEAGLGIDDYWGQGTLVTVSS
VL: EIVLTQSPGTLSLSPGERATLSCRASQIVSRNHLAWYQQKPGQAPRLLIFGASSRATGIPVRFSGSGSGTDFTLTINGLAPEDFAVYYCLSSDSSIFTFGPGTKVDFKR
RSV neutralization (flow cytometry, RSV-GFP on HEp-2 cells): ~50 fold (potency relative to palivizumab)
